{"source": "paper PMC3002279", "about": "“Polyphosphate Kinase from M. tuberculosis: An Interconnect between the Genetic and Biochemical Role” (PLoS ONE, 2010)", "proteins": {"B1": {"name": "Polyphosphate Kinase (PPK) from M. tuberculosis, recombinant, untagged (enzyme)", "chain": "MMSNDRKVTEIENSPVTEVRPEEHAWYPDDSALAAPPAATPAAISDQLPSDRYLNRELSWLDFNARVLALAADKSMPLLERAKFLAIFASNLDEFYMVRVAGLKRRDEMGLSVRSADGLTPREQLGRIGEQTQQLASRHARVFLDSVLPALGEEGIYIVTWADLDQAERDRLSTYFNEQVFPVLTPLAVDPAHPFPFVSGLSLNLAVTVRQPEDGTQHFARVKVPDNVDRFVELAAREASEEAAGTEGRTALRFLPMEELIAAFLPVLFPGMEIVEHHAFRITRNADFEVEEDRDEDLLQALERELARRRFGSPVRLEIADDMTESMLELLLRELDVHPGDVIEVPGLLDLSSLWQIYAVDRPTLKDRTFVPATHPAFAERETPKSIFATLREGDVLVHHPYDSFSTSVQRFIEQAAADPNVLAIKQTLYRTSGDSPIVRALIDAAEAGKQVVALVEIKARFDEQANIAWARALEQAGVHVAYGLVGLKTHCKTALVVRREGPTIRRYCHVGTGNYNSKTARLYEDVGLLTAAPDIGADLTDLFNSLTGYSRKLSYRNLLVAPHGIRAGIIDRVEREVAAHRAEGAHNGKGRIRLKMNALVDEQVIDALYRASRAGVRIEVVVRGICALRPGAQGISENIIVRSILGRFLEHSRILHFRAIDEFWIGSADMMHRNLDRRVEVMAQVKNPRLTAQLDELFESALDPCTRCWELGPDGQWTASPQEGHSVRDHQESLMERHRSP", "notes": "also called M. tu PPK; M.tu PPK"}}, "biological_target": "the molecule itself", "assay": "SEC; […] (50 mM Tris pH 7.5, 150 mM NaCl, 4 mM MgCl2, 10% glycerol) […]", "data": [{"protein": "B1", "values": [{"measurement": "stoichiometry N", "value": 4}]}]}
